{"source": "the nanobody polyreactivity screen of Harvey et al. (2022)", "data": [{"test": "yeast display, Sf9 membrane polyspecificity reagent, FACS + sequencing; frameworks hold sequencing errors", "in_short": "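Sorting gates, low and high (top ~1%), were placed on anti-HA fluorescence to track expression and on streptavidin fluorescence to track reagent binding. A clone's polyreactivity label is taken from the gate it came out of. The reagent was 10% biotinylated, detergent-solubilized Sf9 membrane, applied for 1 hour at 4 °C to galactose-induced yeast display cells.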", "values": [{"sequence": "QVQLVESGGGLVQAGGSLRLSCAASGSTIYGYAMGSYRQAPGKERELVAAISISGGGTYYADSVKGRFTISRDNAKNTVYIQMNSLKPEDTAVYYCARRYFWGQGTQVTVSS", "polyreactivity (PSR sort gate)": "low polyreactivity"}, {"sequence": "QVQLVESGGGLVQAGGSLRLSCAASGSTFYPYAMGWYRLAPGKERELVAVISSGGSTNYADSVKGRFTISRDNAKNTVYLQMNSLKPEDTAVYYCAADLAVYYIFLALEFNYWGQGTQVTVSS", "polyreactivity (PSR sort gate)": "low polyreactivity"}, {"sequence": "QVQLVESGGVLVQSGGSLRLSCAASGFIFYDYAMGWYRQAPGKEREMVAAITSGGSTYYADSVKGRFTISRDNAKNTVYLQMKSLKPEDTAVYYCAADAYNLDDDTYDYWGQGTIVTVSS", "polyreactivity (PSR sort gate)": "low polyreactivity"}, {"sequence": "QVQLVESGGGLDQAGGRLRLSCAASGFTFNYNAMGWYRQATGKERELVAAISRSGGRTYYADSVKGRFTISRDNAKNTVYLQMNSLKPEDTAVYYCAADSGTNGYDYWGQGTQVTVSS", "polyreactivity (PSR sort gate)": "high polyreactivity"}, {"sequence": "QVQLVESGGGIVQAGGSLRLSCAASGFTFRGNAMGWYRQAPGKERELVAVINASGDSTYYADSVKGRFTISRDNAKNTVYLQMNSLKPEDTAVYYCARAYTRRWRYDYWGQGTQVTVSS", "polyreactivity (PSR sort gate)": "high polyreactivity"}, {"sequence": "QVQLVESGGGLVQAGGSLRVSCAASGRTFDSYAMGWYRQAPGKEREFVAAISYSGTSTYYADSVKGRFTISRDNAKNTVYLQMNSLKPEDTAVYYCNAARETRPRDYYWGQGTQVTVSS", "polyreactivity (PSR sort gate)": "low polyreactivity"}, {"sequence": "QVQLVESGGGLVQAGGSLRLSCAASGFNFDWYAMGWYRQAPGKERELVAAISASGGRTYYADSVKGRFTISRDNAKNTVYLQMNSLKPEDTAVYYCNKYYLVKGPYDWGQGTQVTVSS", "polyreactivity (PSR sort gate)": "high polyreactivity"}, {"sequence": "QVQLVESGGGLVQAGGSLRLSCAASGLIFYTNAMGWYRQAPGKERELVAAIDRASTNYADSVKGRFTISRDNAKNTVYLQMNSLKPEDTAVYYCAAGAGRSTFTVGYWGQGTQVTVSS", "polyreactivity (PSR sort gate)": "low polyreactivity"}, {"sequence": "HVQLVESGGGLVQAGGSLRLSCAASGSIFDYNAIGWYRQAPGKERELVASSSGDSGSTYYADSVKWRFTISRDYAKNTVYLQMNSLKPEDTAVYYCAAPYVSWDYRYYYWGQGTQVTVSS", "polyreactivity (PSR sort gate)": "low polyreactivity"}, {"sequence": "QVQLVESGGGLVQAGGSLRISCAASGLTSVTYAMGWYRQAPGKERELVAAITSRAGSTYYADSVKGRFTISRDNAKNTVYLQMNSLKPEDTAVYYCAKDIIRKVYAGYVGRYDYWGQGTQVTVSS", "polyreactivity (PSR sort gate)": "low polyreactivity"}, {"sequence": "QVQLVESGGGLVQAGGSLRLSCAASGSIFFPYVMGWYRQAPGKERELVAAIRRGGGSTYYADSVKGRFTISRDNAKNTVYLQMNSLKPEDTAVYYCAAKGWYVQHFKRGLYNYWGQGTQVTVSS", "polyreactivity (PSR sort gate)": "high polyreactivity"}, {"sequence": "QVQLVESGGGLVQAGGSLRLSCAASGRTFYTNTMGWYRQAPGKERELVAAISYSGSSTYYADSVKGRFTISRDNAKNTVYLQMNCLKPEDTAVYYCNAVRYYRYYYWGQGTQVTVSS", "polyreactivity (PSR sort gate)": "low polyreactivity"}, {"sequence": "QVQLVESGGGLVQAGGSLRLSCAASGFTFQYYAMGWYRQAPGKERELVAAISWSGDSTYYADSVKGRFTISRDNAKNTVYLQMNSLKPEDTAVYYCAVYYTRGYDYWGQGTQVTVSS", "polyreactivity (PSR sort gate)": "high polyreactivity"}, {"sequence": "HVQLGESGGGLVQAGGSLRLSCAASGRISVFYTMGGYRQAPGKEREMVAVIRTSGGRTNYADSVKGRFTISRDNAKNTVYLQMNSLKPEDTAVYYCAARVVRYGYKYYYWGQGTQVTVSS", "polyreactivity (PSR sort gate)": "low polyreactivity"}, {"sequence": "QVQLVESGGGLVQAGGSLRLSCPASGLTFGWYAMGWYRQAPGKERELVASITRRSGSTYYADSVKGRFTISRDNAKNTVYLQMNSLKPEDTAVYFWAARSRGTTRFDYWGQGTQVTVSS", "polyreactivity (PSR sort gate)": "high polyreactivity"}, {"sequence": "QVQLVESGGGLVQAGGSLRLSCAASGFIFDPYAMGWYRPAPGKERELVAVITYSAGSTYADSVNGRFTISRDNAKNTVYLQMNSLKPEDTAVYYCAKRWWYNVPLGVLYDYWGQGTQVTVSS", "polyreactivity (PSR sort gate)": "low polyreactivity"}, {"sequence": "QVQLVESGGGLVQAGGSLRLICAASGITFPHYAMGWYRQAPGKEREYVAAISKRAGSTYYADSVKGRFTISLDNAKNTVYLQMNSLKPEDTSVYYCAADDRYYSPYGFKYWGQCTQVTVSS", "polyreactivity (PSR sort gate)": "high polyreactivity"}, {"sequence": "QVQLVESGVGIVQAGGSLRLSSAPSGRTFTWYAMGRTRQAPGKERELVAAITNGGRTYADSVKGRFTISRDNAKNTVYLQMNSLKPEDTAVYYCAKVQYRGYLPHQRGRERDYDYWGQGTQVTVSS", "polyreactivity (PSR sort gate)": "low polyreactivity"}, {"sequence": "QVQLVESGGGLVQAGGSLRLSCAASGSTFNYNAMGWYRPAPRKERELVAAITWNSGSTYYADSVKGRFTISRDNAKNTVYLQMNSLKQEDTAVYSCAADFTIPYWDAKFDYWGQGTQVTVSS", "polyreactivity (PSR sort gate)": "low polyreactivity"}, {"sequence": "HVQLVESGGGLVQAGGSLRLSCAASGRIFPGNVMGWYRHAPGKERELVAGIDSSGGSTSYADSVKGRFTISRDNAKNSVYLQMNSLKPEDTAVYYCAKVRDQARYQWGYQEFDYWGEGTQVTVSS", "polyreactivity (PSR sort gate)": "low polyreactivity"}, {"sequence": "QVQLQESGGGLVQAGGSLRLSCAASGTISTIEPMGWYRQAPGKERELVACIGAGTITNYADSVKGRFTISRDNDTVYLQMNSLKPEDTAVYYCNADGWYALYEWLAVSGYYWGQGTQVTVSS", "polyreactivity (PSR sort gate)": "low polyreactivity"}, {"sequence": "QVQLVESGGGLVQAGGSLRLSCAASGSTFVRYAMGWYRQAPGKEREFVASITCRGGSTYYADSVKGRFTITRDNAKNTVYLQMNSLKPEDTAVYYCAARGREWYYWGQGTQVTVSS", "polyreactivity (PSR sort gate)": "high polyreactivity"}]}]}
